Assay results as given in publication PMC7834092.

Target: Eno_(N-Strep), N-terminally Strep-tagged enolase encoded at its native locus (Bacillus subtilis), P37869
Test: pull-down
Settings: remark: other sources report otherwise

Sequence of Eno_(N-Strep), N-terminally Strep-tagged enolase encoded at its native locus (Bacillus subtilis), P37869 (P37869 whole entry): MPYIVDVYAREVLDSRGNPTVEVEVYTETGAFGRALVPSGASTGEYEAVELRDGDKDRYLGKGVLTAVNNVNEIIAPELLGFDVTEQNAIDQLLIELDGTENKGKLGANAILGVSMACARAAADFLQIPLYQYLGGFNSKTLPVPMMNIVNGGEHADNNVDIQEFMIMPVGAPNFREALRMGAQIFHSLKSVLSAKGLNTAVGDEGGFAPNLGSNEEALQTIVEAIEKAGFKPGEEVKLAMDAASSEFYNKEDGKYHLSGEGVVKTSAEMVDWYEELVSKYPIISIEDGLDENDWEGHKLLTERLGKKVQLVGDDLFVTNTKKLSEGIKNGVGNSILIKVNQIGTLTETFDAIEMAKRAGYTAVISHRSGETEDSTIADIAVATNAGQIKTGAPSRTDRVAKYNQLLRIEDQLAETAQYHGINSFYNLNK

less RNase Y co-eluted after RNase A treatment of the extract: 20 to 30%
B1: RNase Y (native) of B. subtilis, O31774 1-520 (enzyme)
chain: MTPIMMVLISILLILLGLVVGYFVRKTIAEAKIAGARGAAEQILEDAKRDAEALKKEALLEAKDEIHKLRIDAEQEVRERRNELQKQENRLLQKEENLDRKHEGIDKREAMLEKKDHSLNERQQHIEEMESKVDEMIRMQQSELERISSLTRDEAKQIILERVENELSHDIAIMTKETENRAKEEADKKAKNILSLALQRCAADHVAETTVSVVNLPNDEMKGRIIGREGRNIRTLETLTGIDLIIDDTPEAVILSGFDPIRRETARIALDKLVQDGRIHPARIEEMVEKSRREVDDYIREMGEQTTFEVGVHGLHPDLIKILGRLKFRTSYGQNVLKHSMEVAFLAGLMASELGEDAKLAKRAGLLHDIGKAIDHEVEGSHVEIGVELATKYKEHPVVINSIASHHGDEEPTSIIAVLVAAADALSAARPGARSETLENYIRRLEKLEEISESYEGVEKSFAIQAGREVRIMVKPDSINDLEAHRLARDIRKRIEDELDYPGHIKVTVIRETRAVEYAK
